Results on 17 sequences are retold here after the DeepSol protein solubility set.

The series is described as follows: soluble on expression in E. coli; label from the status in PepcDB or PDB records.
For the sequence “MSLQITGVNQYHLEHRLEEPFHPTWIPGYPQSTHELELFEIETDAGITGYGASPSFAGGLDYETPLELFLTGEDPHNVDGILGKLETVNLVGPRPWHIEMALWDIIGKDAGKPVCELFGAEQRAIPAYASSGEIQPADERIDYVEQRIDEGFDAVKLRVTETDHIETVRAVRESFPDLTLMVDANKGWAVRVMEEPTEWSFSDALEFARELDAVGGVEWLEEPLHRHDYDGYARLRDAVDVNIAGGEFNNGIHHFREFVDRGSLDILQPDAALATGIRRAVDVARMGEANGLQFVPHTWTNAVGFAANLHVMTAVGSPWCEYPMEPPWTPDVWSFMLEDGFEHDDGVVRAPSKPGLGIEIPDKVLEDAGEGHHHHHH”, the “soluble on expression in E. coli” value is listed as “soluble”. Take “MDKTTHDKGLEIRKAVLGEAYVENALKNADDFNQPFQELVTEYCWGAIWGRDGLPKKTRSMLNLAMIAILNRPHELRAHIKGALTNGVTKDEIREIFMQVACYAGIPAGVDSFRIAREVFAELDKA”: the “soluble on expression in E. coli” value is recorded as “not soluble”. As to “MKKLYGVIGNPIGHSMSPDIHNASLKDLGLDGHYHAFKVEENDLEDAVKGIRALGVQGINVTVPHKVSIMDYLDHIDESAKVLGAVNTVRREGDKLVGYNTDGEGFVKSLMKVLDKPISELSFLMIGAGGAARAIFTTFVRNTPKKFDICNRTLEKAKRLTEATPSFHNKEVLSIKEAEERLEQYDVIIHTTSVGMYPNVDDVPLSLQRAASSAVVCDIVYNPIQTALLKEASQKGLKTLDGVGMFVEQAALSFQLWTGQEPNIEKMRSIVIGKLGGTECLEHHHHHH”, the “soluble on expression in E. coli” value is listed as “soluble”. In the case of “MGSDKIHHHHHHMVDTHAHLHFHQFDDDRNAVISSFEENNIEFVVNVGVNLEDSKKSLDLSKTSDRIFCSVGVHPHDAKEVPEDFIEHLEKFAKDEKVVAIGETGLDFFRNISPAEVQKRVFVEQIELAGKLNLPLVVHIRDAYSEAYEILRTESLPEKRGVIHAFSSDYEWAKKFIDLGFLLGIGGPVTYPKNEALREVVKRVGLEYIVLETDCPFLPPQPFRGKRNEPKYLKYVVETISQVLGVPEAKVDEATTENARRIFLEVKE”, the “soluble on expression in E. coli” value is “soluble”. Consider “MGSDKIHHHHHHMAFCNNANLLNVFVRHIANNQLRSLAEVATVAHQLKLLKDDFFASDQQAVAVADRYPQDVFAEHTHDFCELVIVWRGNGLHVLNDRPYRITRGDLFYIHADDKHSYASVNDLVLQNIIYCPERLKLNLDWQGAIPGFNASAGQPHWRLGSMGMAQARQVIGQLEHESSQHVPFANEMAELLFGQLVMLLNRHRYTSDSLPPTSSETLLDKLITRLAASLKSPFALDKFCDEASCSERVLRQQFRQQTGMTINQYLRQVRVCHAQYLLQHSRLLISDISTECGFEDSNYFSVVFTRETGMTPSQWRHLNSQKD”, for which the “soluble on expression in E. coli” value is recorded as “not soluble”.

As for “GPGSMEEDLAYKIIVIGSVSVGKSNITSRFCDGAFYPDLVPTLGMDFKYSSCNTLEKRPRCVRLQVWDTSGQDDFVTLTTAFYRNCQGALLCFDLTNRQSFEDLDQWYERLERYSPVVPPLILVGCKLDLVESHLDEQGEGIVLGSHRQIAKSEADAWARYHSCLCYLETSAKENRNVSQAFQQLATCIASVANPGAKHAGRILGPGGRLLVEEEKQQKRQCCAN”, the “soluble on expression in E. coli” value is “not soluble”. In the case of “MIPRKEMAAVSTEMTMAEMLEVMLKEKYTRWPVTDGDKDSVLGLVNTKHLFSDLLFMTEEERMKMTIHPYVRPVIEVIETIPVHDLLIKMQRERIHMAILSDEYGGTSGLVTTEDILEEIVGEIR”, the “soluble on expression in E. coli” value was “not soluble”.

For the sequence “MLNLRGVEIRKGALDGPAQARLIEALRPVLKAAPLFTPTMPNGKPLSVRMTSAGSLGWVTDKGGYRYQPTHPKGMAWPAIPPEVLDLWHGVTGQDRAPDCCLINYYGEGARMGLHQDRDEADLTWPVVSLSLGDDALFRIGNTSRGGKTESVWLNSGDVVVMGGPARLIYHGIDRIRFGSSRLLPKGGRLNLTLRVAGLEHHHHHH”, the “soluble on expression in E. coli” value is on record as “not soluble”. On to “MAPTSSIEIVLDKTTASVGEIVTASINIKNITNFSGCQLNMKYDPAVLQPVTSSGVAYTKSTMPGAGTILNSDFNLRQVADNDLEKGILNFSKAYVSLDDYRTAAAPEQTGTVAVVKFKVLKEETSSISFEDTTSVPNAIDGTVLFDWNGDRIQSGYSVIQPAVINLDMTKASYITMGYDKNAAEVGEIIKATVKINKITNFSGYQVNIKYDPTVLQAVNPKTGVAYTNSSLPTSGELLVSEDYGPIVQGVHKISEGILNLSRSYTALEVYRASESPEETGTLAVVGFKVLQKKATTVVFEDSETMPNGITGTTLFNWYGNRIQSGYFVIQPGEINSAPIATLEHHHHHH”, for which the “soluble on expression in E. coli” value was “soluble”.

For “MTDYDVLRVFCAPNGGYGNELGVVRDGSVLPEPERRQELAAKLGFSETVFVDDPERGVVDIYTPTLRLPFAGHPCVGTAWLLDVPELVTRAGVVGARLDGEFSWIEARPEWAPPRTLRQYAAVAEVDDLAVPPKGEWVYAWAWEDEAAGRVRARAFPGRDDGIDEDEATGAAALLLTGRLGRALNITQGVGSQILTAPQPEGWVEIGGRVRLERLEHHHHHH”, the “soluble on expression in E. coli” value was “not soluble”. As for “MIPVERHQQILALIAERGAVSINELTERLGVSHMTVRRDVQKLEQDGLLLSVSGGVRSPERLATEPSHQDKSVMFSQQKAAMGKLAAQHIPLNSCIYLDAGTTTLSLARELAERDDLLIVTNDFAIAAFLIESSQCRMIHTGGTLCRENQSCIGEAVAQALRNLFIDIAFISASSWSLRGLSTPNEDKVVVKRAAVEASRKRVLLCDTSKYGRIATHLATPLDVFDSIITDDGLPVAAKEALSKMGVEVLVAG”, the entry is “not soluble”. “SFPGDYDNYLLEKEEMLRVEEMQNAEFDKKLAQEEVWIRQGIKARRTRNEGRVRALKKLREERRDRREVQGKVNLNIDDASRSGKIVF”: the “soluble on expression in E. coli” value is “not soluble”. In the case of “MAHHHHHHMRMSLTTRRPFCPVLLNIGSSRAVTLSHFHAKVCPSITATVKQTIRELDDEASPNHQRRQESCFSSGELRLRPYGFSPERPQLQHESWSCAWHSYLNAVRLRGEVSAAGVAPLPPTATSANSTSHNDDEFFPMTGTLTLPVPVVVPTSNNEPSNETIMMEFFRVDAFIPVRVQMYHVMRRLIKMQAVWNNIVAIGIVVPTHEVEYFISAARAAHASDGERTPHALLSRKPSVLVYDPEGLRFQAPESKRLRK”, the “soluble on expression in E. coli” value is “not soluble”. For “MGHHHHHHSHMKSREGSVHPQVEIANLLLIQSSLANLPPGPCWFCLASPEVEKHLVVNIGTHCYLALAKGGLSDDHVLILPIGHYQSVVELSAEVVEEVEKYKATLRRFFKSRGKWCVVFERNYKSHHLQLQVIPVPISCSTTDDIKDAFITQAQEQQIELLEIPEHSDIKQIAQPGAAYFYVELDTGEKLFHRIKKNFPLQFGREVLASEAILNVPDKSDWRQCQISKEDEETLARRFRKDFEPYDFTLDD”, the “soluble on expression in E. coli” value was “not soluble”. The same measure for “MGSDKIHHHHHHMKRVIINADDFGLSDGVNRAVIKAWQEGILTSASLMVGGDAFHEAVHLAKANPGLHVGLHLTLVQGRAVGEHGGFPSICDSKGAFSDDPVQTGMRYFFIRSFRKQLYREIEAQIVRFLQTGLPLSHVDGHLNIHMHPVVFDLLCGLMRKHGITTFRLCRENLRANLTLDRERRFGKMVDAFIFSKLAGRCRPILDHLGIGYAQEVKGLLNSGRMTEEYLLRVLDTLEDGTTELYFHPGCLPCAEITRRMPDYRHEEELAALMSPRVKGRLKELGIELGNYRGEVKTYV”: “not soluble”; for “MGSDKIHHHHHHMYVVFGATGQTGSAVANALLERNFPVRVVLRSDKAASTWREKGADVAIAEVTDVEAMTAAMREADAVYVMNPPAYNVSDMFALAEQIGECYVEALTNADARKVVLLSSVGSQHASGTGNILTTHILERMLGNLAVPVTVLRAASFMENWGSAAAIAAEQGVLPSFFAPLDRRLPMVSTEDIGRTAAEAMIEDWKGQRIIELHGPIDYSPNDVAAAFAAVLNRNVQAIAVPESDWQATISSFGFSPEAVNSYSEMMRGFNSGHIVFESSPEIETRTGQTAIEAAVDRLTGSKSK”: “not soluble”.

As for “MFYDGYAYHGTTFEQTYRCYPSSFIDKPQIESGDKIIMPPSALDRLASLQIDYPMLFELRNASTDSFSHCGVLEFIAEEGVIYIPYWMMQNLLLQEGDMVRVRNVTLPKGTYVKLQPHTTDFLDIANPKAILETALRNYSCLTVGDSIMVPYNNKKYFIDIVEAKPSNGISIIETDCEVDFAPPLDYKEPERPVAPAPAKGEAKAKEVDVAEAEPKFNPFTGSGRRLDGRPLSYEPQPGAANSNGQSHPVASSSSSGSEKATQQNRGKLVFGSNVERSTKETTKVGAGKDRKQEEEAEKEAKFQAFSGKKYSLRG”, the “soluble on expression in E. coli” value was “soluble”.
